Molecular target: MBP-PLK1 (UniProt P53350 1-603)
Assay: pull-down

Sequence of MBP-PLK1 (P53350 whole entry): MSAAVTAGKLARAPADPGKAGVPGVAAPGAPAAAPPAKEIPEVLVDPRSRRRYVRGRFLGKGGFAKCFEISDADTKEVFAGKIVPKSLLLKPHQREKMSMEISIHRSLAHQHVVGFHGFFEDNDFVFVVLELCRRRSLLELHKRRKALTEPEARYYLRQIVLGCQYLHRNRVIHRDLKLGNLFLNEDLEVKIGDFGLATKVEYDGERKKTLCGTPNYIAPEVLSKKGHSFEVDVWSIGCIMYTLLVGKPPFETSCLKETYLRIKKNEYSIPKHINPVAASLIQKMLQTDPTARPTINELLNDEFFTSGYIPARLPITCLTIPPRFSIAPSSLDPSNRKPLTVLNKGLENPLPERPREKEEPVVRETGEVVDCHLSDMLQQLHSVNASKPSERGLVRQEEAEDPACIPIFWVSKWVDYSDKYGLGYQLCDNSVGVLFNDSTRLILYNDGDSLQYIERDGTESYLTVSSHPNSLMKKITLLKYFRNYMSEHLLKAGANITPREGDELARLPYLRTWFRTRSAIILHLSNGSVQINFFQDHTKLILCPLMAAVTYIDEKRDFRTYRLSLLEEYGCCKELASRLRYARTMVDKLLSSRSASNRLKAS

B1: GST-Apolo1-N (domain or fragment)
chain: MFLPHMNHLTLEQTFFSQVLPKTVKLFDDMMYELTSQARGLSSQNLEIQTTLRNILQTMVQLLGALTGCVQHICATQESIILENIQSLPSSVLHIIKSTFVHCKNSESVYSGCLHLVSDLLQALFKEAYSLQKQLMELLDMVCMDPLVDDNDDILNMVIVIHSLLDICSVISSMDH
B1: binds.

Source: PMC8358895 (Cell reports, 2021)
